Publication PMC6962393, “Targeting the tumor vasculature with engineered cystine-knot miniproteins” (Nature Communications, 2020)

How the values were obtained:
Assay in all cases: ELISA
ELISA = substrate: FN-B, recombinant human fibronectin extra domain B (EDB) as a single domain; conditions: chain shown with the change; pre-coated human FN-B; detection with HRP-conjugated anti-S-tag antibody; parent: est. 100; read off a plot
[1] = target: FN-6789, human fibronectin type III domains 6–9 without EDB; conditions: chain shown with the change, FN-6789 coated 1 µg/well, read off a plot
FN-6789, human fibronectin type III domains 6–9 without EDB, sequence (chain, as listed by the source): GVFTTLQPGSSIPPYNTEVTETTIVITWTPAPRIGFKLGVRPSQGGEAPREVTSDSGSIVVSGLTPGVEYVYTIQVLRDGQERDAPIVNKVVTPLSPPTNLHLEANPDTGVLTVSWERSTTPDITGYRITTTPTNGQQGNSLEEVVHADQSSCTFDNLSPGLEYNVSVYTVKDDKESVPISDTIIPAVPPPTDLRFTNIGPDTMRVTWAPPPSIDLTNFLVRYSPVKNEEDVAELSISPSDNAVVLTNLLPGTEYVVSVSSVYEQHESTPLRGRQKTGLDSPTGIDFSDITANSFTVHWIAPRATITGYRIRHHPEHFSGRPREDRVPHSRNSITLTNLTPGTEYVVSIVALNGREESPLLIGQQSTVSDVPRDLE

[2] = target: FN-67B89, human fibronectin EDB flanked by its surrounding type III domains; conditions: chain shown with the change, FN-67B89 coated 1 µg/well, read off a plot
FN-67B89, human fibronectin EDB flanked by its surrounding type III domains, sequence (chain, as listed by the source): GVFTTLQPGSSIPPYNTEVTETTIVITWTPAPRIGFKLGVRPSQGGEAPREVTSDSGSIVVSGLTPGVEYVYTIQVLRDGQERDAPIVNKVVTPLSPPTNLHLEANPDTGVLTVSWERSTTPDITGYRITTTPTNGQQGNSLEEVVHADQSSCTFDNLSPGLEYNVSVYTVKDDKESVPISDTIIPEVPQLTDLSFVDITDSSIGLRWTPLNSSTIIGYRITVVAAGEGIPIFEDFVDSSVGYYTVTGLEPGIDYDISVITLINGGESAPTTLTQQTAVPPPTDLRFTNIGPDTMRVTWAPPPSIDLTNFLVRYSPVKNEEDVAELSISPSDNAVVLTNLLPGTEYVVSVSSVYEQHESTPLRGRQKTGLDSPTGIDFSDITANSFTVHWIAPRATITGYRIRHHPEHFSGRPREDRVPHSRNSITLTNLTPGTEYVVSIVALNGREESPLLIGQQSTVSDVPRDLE

FN-B, recombinant human fibronectin extra domain B (EDB) as a single domain, sequence (chain, as listed by the source): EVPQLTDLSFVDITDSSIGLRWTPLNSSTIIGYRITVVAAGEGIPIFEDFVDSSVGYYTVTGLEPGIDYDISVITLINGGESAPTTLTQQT

Binder | percent of parent (ELISA) | other results
AMCTQRKNRIRLCRRDSDCTGACICRGNGYCG [Trx-MC-FN-010, Thioredoxin-A fusion of cystine-knot miniprotein MC-FN-010 P1A] | 130% | –
PMCTQAKNRIRLCRRDSDCTGACICRGNGYCG [Trx-MC-FN-010, Thioredoxin-A fusion of cystine-knot miniprotein MC-FN-010 R6A] | 83% | –
PMCTQRKARIRLCRRDSDCTGACICRGNGYCG [Trx-MC-FN-010, Thioredoxin-A fusion of cystine-knot miniprotein MC-FN-010 N8A] | 88% | –
PMCAQRKNRIRLCRRDSDCTGACICRGNGYCG [Trx-MC-FN-010, Thioredoxin-A fusion of cystine-knot miniprotein MC-FN-010 T4A] | 100% | –
PMCTQRKNRIRLCRADSDCTGACICRGNGYCG [Trx-MC-FN-010, Thioredoxin-A fusion of cystine-knot miniprotein MC-FN-010 R15A] | 61% | –
PMCTARKNRIRLCRRDSDCTGACICRGNGYCG [Trx-MC-FN-010, Thioredoxin-A fusion of cystine-knot miniprotein MC-FN-010 Q5A] | 65% | –
PMCTQRKNAIRLCRRDSDCTGACICRGNGYCG [Trx-MC-FN-010, Thioredoxin-A fusion of cystine-knot miniprotein MC-FN-010 R9A] | 5% | –
PACTQRKNRIRLCRRDSDCTGACICRGNGYCG [Trx-MC-FN-010, Thioredoxin-A fusion of cystine-knot miniprotein MC-FN-010 M2A] | 100% | –
PMCTQRANRIRLCRRDSDCTGACICRGNGYCG [Trx-MC-FN-010, Thioredoxin-A fusion of cystine-knot miniprotein MC-FN-010 K7A] | 320% | response (Absorbance (450 nm)) ([1]; 25 nM Trx-miniprotein, parent: est. 0.30): 0.09; response (Absorbance (450 nm)) ([1]; 50 nM Trx-miniprotein, parent: est. 0.62): 0.13; response (Absorbance (450 nm)) ([2]; 1.56 nM Trx-miniprotein, parent: est. 0.70): 0.62; response (Absorbance (450 nm)) ([2]; 3.13 nM Trx-miniprotein, parent: est. 1.5): 1.1; response (Absorbance (450 nm)) ([2]; 6.25 nM Trx-miniprotein, parent: est. 2.2): 1.7; response (Absorbance (450 nm)) ([2]; 12.5 nM Trx-miniprotein, parent: est. 3.0): 2.4; response (Absorbance (450 nm)) ([2]; 25 nM Trx-miniprotein, parent: est. 3.4): 2.9; response (Absorbance (450 nm)) ([2]; 50 nM Trx-miniprotein, parent: est. 3.7): 3.1
PMCTQRKNRIRLCARDSDCTGACICRGNGYCG [Trx-MC-FN-010, Thioredoxin-A fusion of cystine-knot miniprotein MC-FN-010 R14A] | 71% | –
